This is an account of results in paper doi:10.1101/239830.

For orientation: Kd means the concentration at which binding is half-saturated. Read a low Kd as tighter binding.

Holding throughout (assay): fluorescence polarisation
For orientation: Polarisation of emitted light reports the rotation of a fluorescent probe.

Assay [1] addresses OR-1 peptide derived from olfactory receptor OLFR1507.
Assay [2] deals with V1rb2-1 peptide derived from vomeronasal receptor V1RB2.
Assay [3] addresses V1rb2-2 peptide derived from vomeronasal receptor V1RB2.

In the case of “PERK LD as used in the fluorescence anisotropy assays (domain or fragment)”, the Kd worked out at 250 µM in assay [1], 6.6 µM in assay [2] and 6.1 µM in assay [3].
